Source: paper PMC10763354

What was measured:
[1] = biological target: leucine-rich repeat containing 19 (LRRC19) protein (UniProt Q9H756); assay: SPR; BIACORE 3000, 25 °C; LRRC19 immobilised on a CM5 chip (EDC/NHS); DVF in Tris buffered saline injected at 30 μL/min, at least 5 concentrations, 180 s binding, 300 s dissociation
[2] = biological target: leucine-rich repeat containing 19 (LRRC19) protein (UniProt Q9H756); assay: MST; Monolith NT.115; NT647-labelled LRRC19 and DVF in the presence of typhaneoside; MST buffer (50 mM Tris-HCl pH 7.4, 150 mM NaCl, 10 mM MgCl2)

Chain of leucine-rich repeat containing 19 (LRRC19) protein (Q9H756 25-270): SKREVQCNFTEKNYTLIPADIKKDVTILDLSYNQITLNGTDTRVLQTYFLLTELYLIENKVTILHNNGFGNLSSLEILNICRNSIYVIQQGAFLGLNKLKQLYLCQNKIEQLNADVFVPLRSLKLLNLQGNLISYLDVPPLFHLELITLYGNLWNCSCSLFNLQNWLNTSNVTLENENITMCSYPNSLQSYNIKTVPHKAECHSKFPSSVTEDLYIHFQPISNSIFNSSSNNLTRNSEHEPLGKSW

Kd [1]: 35 µM | fold reduction of the binding affinity by typhaneoside (against DVF-LRRC19 without it) [2]: 400 fold
Substance: Desulfovibrio vulgaris flagellin (natural protein)
